Assay results as given in patent US20120053125A1.
Residue numbers refer to the chain shown, from its start. Numbers in names are those of the source.

B1: PKA-phosphorylated human I-1 wild type (protein)
chain: MEQDNSPRKIQFTVPLLEPHLDPEAAEQIRRRRPTPATLVLTSDQSSPEIDEDRIPNPHLKSTLAMSPRQRKKMTRITPTMKELQMMVEHHLGQQQQGEEPEGAAESTGTQESRPPGIPDTEVESRLGTSGTAKKTAECIPKTHERGSKEPSTKEPSTHIPPLDSKGANSV
modifications: phosphothreonine at Thr-35 (phosphorylated in vitro by PKA)
B2: human I-1 (S67D/T75D) (protein)
chain: B1 chain with S67D, T75D
B3: human I-1 (T75D) (protein)
chain: B1 chain with T75D
B4: human I-1 (S67A) phosphorylated by PKC-α (protein)
chain: B1 chain with S67A
modifications: phosphothreonine at Thr-75 (phosphorylated in vitro by PKC-α; 0.35 mol Pi/mol protein)
B5: human I-1 wild type phosphorylated first by PKC-α and then by PKA (protein)
chain: B1 chain
modifications: phosphothreonine at Thr-35 (PKA); phosphoserine at Ser-67 and phosphothreonine at Thr-75 (PKC-α)
B6: human I-1 (S67D) (protein)
chain: B1 chain with S67D

Assays:
[1] = molecular target: Protein Phosphatase-1 (PP1), purified catalytic subunit (New England BioLabs) (UniProt P62139); test: cell-based or functional assay
[2] = molecular target: endogenous type-1 protein phosphatase (PP1) of adult rat cardiomyocyte lysates (rat); test: cell-based or functional assay

Sequence of Protein Phosphatase-1 (PP1), purified catalytic subunit (New England BioLabs) (P62139 whole entry): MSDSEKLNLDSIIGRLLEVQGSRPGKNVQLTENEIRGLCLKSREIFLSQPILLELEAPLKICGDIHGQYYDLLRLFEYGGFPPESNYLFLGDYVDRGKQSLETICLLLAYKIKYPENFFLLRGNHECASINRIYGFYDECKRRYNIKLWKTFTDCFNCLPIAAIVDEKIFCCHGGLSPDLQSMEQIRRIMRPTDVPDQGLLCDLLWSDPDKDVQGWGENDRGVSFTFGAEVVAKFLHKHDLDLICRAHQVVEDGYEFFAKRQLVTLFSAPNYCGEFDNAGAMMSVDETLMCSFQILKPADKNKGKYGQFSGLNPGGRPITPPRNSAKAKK

| Binder | IC50 of inhibition of PP1 activity (dephosphorylation of 32P-MyBP) [1] [nM] | PP1 activity remaining after PKA stimulation in infected rat cardiomyocytes [2] [fold] | increase of purified PP1c activity compared to I-1 wild-type [1] [%] | other results |
| --- | --- | --- | --- | --- |
| B1 | 3.2 |  |  |  |
| B2 |  | 2 |  |  |
| B3 |  | 2 | 23 | increase in type-1 phosphatase activity in infected rat cardiomyocyte lysates compared to Ad.I-1WT and Ad.GFP [2]: 27% |
| B4 |  |  | 25 |  |
| B5 | 4.9 |  |  |  |
| B6 |  | 2 |  |  |
